B1: HER2/neu peptide, position 447, 10 amino acids (peptide)
peptide: GLGISWLGLR
notes: also called Her2/neu.447 (10-mer)
B2: HER2/neu peptide, position 805, 10 amino acids (peptide)
peptide: CLLDHVRENR
notes: also called Her2/neu.805 (10-mer)
B3: HER2/neu peptide, position 874, 10 amino acids (peptide)
peptide: ETEYHADGGK
notes: also called Her2/neu.874 (10-mer)
B4: HER2/neu peptide, position 1144, 10 amino acids (peptide)
peptide: DVRPQPPSPR
notes: also called Her2/neu.1144 (10-mer)
B5: HER2/neu peptide, position 845, 10 amino acids (peptide)
peptide: DLAARNVLVK
notes: also called Her2/neu.845 (10-mer)
B6: HER2/neu peptide, position 26, 9 amino acids (peptide)
peptide: CTGTDMKLR
notes: also called Her2/neu.26 (9-mer)
B7: HER2/neu peptide, position 705, 9 amino acids (peptide)
peptide: AMPNQAQMR
notes: also called Her2/neu.705 (9-mer)
B8: HER2/neu peptide, position 508, 10 amino acids (peptide)
peptide: GLACHQLCAR
notes: also called Her2/neu.508 (10-mer)
B9: HER2/neu peptide, position 549, 10 amino acids (peptide)
peptide: GLPREYVNAR
notes: also called Her2/neu.549 (10-mer)
B10: HER2/neu peptide, position 672, 10 amino acids (peptide)
peptide: GILIKRRQQK
notes: also called Her2/neu.672 (10-mer)
B11: HER2/neu peptide, position 321, 10 amino acids (peptide)
peptide: EVTAEDGTQR
notes: also called Her2/neu.321 (10-mer)
B12: HER2/neu peptide, position 240, 9 amino acids (peptide)
peptide: CAAGCTGPK
notes: also called Her2/neu.240 (9-mer)
B13: HER2/neu peptide, position 180, 9 amino acids (peptide)
peptide: ALTLIDTNR
notes: also called Her2/neu.180 (9-mer)
B14: HER2/neu peptide, position 890, 9 amino acids (peptide)
peptide: ALESILRRR
notes: also called Her2/neu.890 (9-mer)
B15: HER2/neu peptide, position 776, 9 amino acids (peptide)
peptide: GVGSPYVSR
B16: HER2/neu peptide, position 509, 9 amino acids (peptide)
peptide: LACHQLCAR
B17: HER2/neu peptide, position 632, 9 amino acids (peptide)
peptide: HSCVDLDDK
B18: HER2/neu peptide, position 878, 10 amino acids (peptide)
peptide: HADGGKVPIK
B19: HER2/neu peptide, position 1173, 10 amino acids (peptide)
peptide: LSPGKNGVVK
B20: HER2/neu peptide, position 181, 10 amino acids (peptide)
peptide: LTLIDTNRSR
B21: HER2/neu peptide, position 747, 10 amino acids (peptide)
peptide: KIPVAIKVLR
B22: HER2/neu peptide, position 674, 10 amino acids (peptide)
peptide: LIKRRQQKIR
B23: HER2/neu peptide, position 179, 10 amino acids (peptide)
peptide: LALTLIDTNR
B24: HER2/neu peptide, position 681, 8 amino acids (peptide)
peptide: KIRKYTMR
B25: HER2/neu A02 supermotif peptide, position 136, 10 amino acids (peptide)
peptide: GLRELQLRSL
notes: Synthetic peptide
B26: HER2/neu A02 supermotif peptide, position 809, 9 amino acids (peptide)
peptide: HVRENRGRL
notes: Synthetic peptide
B27: HER2/neu A02 supermotif peptide, position 1189, 9 amino acids (peptide)
peptide: GAVENPEYL
notes: Synthetic peptide
B28: HER2/neu A02 supermotif peptide, position 447, 9 amino acids (peptide)
peptide: GLGISWLGL
notes: Synthetic peptide
B29: HER2/neu A02 supermotif peptide, position 152, 10 amino acids (peptide)
peptide: GVLIQRNPQL
notes: Synthetic peptide
B30: HER2/neu A02 supermotif peptide, position 439, 10 amino acids (peptide)
peptide: GAYSLTLQGL
notes: Synthetic peptide
B31: HER2/neu A02 supermotif peptide, position 832, 10 amino acids (peptide)
peptide: GMSYLEDVRL
notes: Synthetic peptide
B32: HER2/neu A02 supermotif peptide, position 737, 10 amino acids (peptide)
peptide: GIWIPDGENV
notes: Synthetic peptide
B33: HER2/neu A02 supermotif peptide, position 660, 10 amino acids (peptide)
peptide: GILLVVVLGV
notes: Synthetic peptide
B34: HER2/neu A02 supermotif peptide, position 858, 9 amino acids (peptide)
peptide: HVKITDFGL
notes: Synthetic peptide
B35: HER2/neu A02 supermotif peptide, position 925, 10 amino acids (peptide)
peptide: GIPAREIPDL
notes: Synthetic peptide
B36: HER2/neu A02 supermotif peptide, position 1164, 10 amino acids (peptide)
peptide: GATLERPKTL
notes: Synthetic peptide
B37: HER2/neu A02 supermotif peptide, position 449, 10 amino acids (peptide)
peptide: GISWLGLRSL
notes: Synthetic peptide
B38: HER2/neu A02 supermotif peptide, position 262, 10 amino acids (peptide)
peptide: GICELHCPAL
notes: Synthetic peptide
B39: HER2/neu A02 supermotif peptide, position 878, 9 amino acids (peptide)
peptide: HADGGKVPI
notes: Synthetic peptide
B40: HER2/neu A02 supermotif peptide, position 776, 10 amino acids (peptide)
peptide: GVGSPYVSRL
notes: Synthetic peptide
B41: HER2/neu A02 supermotif peptide, position 131, 10 amino acids (peptide)
peptide: GASPGGLREL
notes: Synthetic peptide
B42: HER2/neu A02 supermotif peptide, position 787, 10 amino acids (peptide)
peptide: GICLTSTVQL
notes: Synthetic peptide
B43: HER2/neu A02 supermotif peptide, position 344, 10 amino acids (peptide)
peptide: GLGMEHLREV
notes: Synthetic peptide
B44: HER2/neu A02 supermotif peptide, position 654, 10 amino acids (peptide)
peptide: IISAVVGILL
notes: Synthetic peptide
B45: Her2/neu.478.V2K10 (peptide)
peptide: HVVPWDQLFK
notes: synthetic analog peptide
B46: HER2/neu peptide, position 84, 9 amino acids (peptide)
peptide: VLIAHNQVR
notes: Synthetic A3 supermotif peptide
B47: HER2/neu peptide, position 597, 9 amino acids (peptide)
peptide: VARCPSGVK
notes: as for B46

Target: HLA-A*1101 (purified HLA class I molecule) (human)
Experiment: inhibition of 125I probe peptide binding to purified HLA; ratio to standard peptide

B1 and B2 are the same in relative binding ratio: 0.0001 ratio (IC50 standard / IC50 test) for the first, 0.0001 ratio (IC50 standard / IC50 test) for the second.

B3 and B4 are the same in relative binding ratio: 0.0001 ratio (IC50 standard / IC50 test) for the first, 0.0001 ratio (IC50 standard / IC50 test) for the second.

First: B5
Second: B6
The relative binding ratio of the first is higher: 0.0007 ratio (IC50 standard / IC50 test) for the first, 0.0005 ratio (IC50 standard / IC50 test) for the second.

First: B7
Second: B8
The relative binding ratio of the first is higher: 0.0006 ratio (IC50 standard / IC50 test) for the first, 0.0001 ratio (IC50 standard / IC50 test) for the second.

Going from B9 to B10, the relative binding ratio rises from 0.0003 ratio (IC50 standard / IC50 test) to 0.0014 ratio (IC50 standard / IC50 test).

Going from B11 to B12, the relative binding ratio rises from 0.0001 ratio (IC50 standard / IC50 test) to 0.0021 ratio (IC50 standard / IC50 test).

Compared with B13, B14 is higher in relative binding ratio: 0.0005 ratio (IC50 standard / IC50 test) for the first, 0.0006 ratio (IC50 standard / IC50 test) for the second.

Target: T1, HLA-A*0301 (purified HLA class I molecule) (human)
T1 construct: also called A3
Experiment: as above

First: B1
Second: B2
The relative binding ratio of the first is higher: 0.0037 ratio (IC50 standard / IC50 test) for the first, 0.0003 ratio (IC50 standard / IC50 test) for the second.

B3 and B4 are the same in relative binding ratio: 0.0003 ratio (IC50 standard / IC50 test) for the first, 0.0003 ratio (IC50 standard / IC50 test) for the second.

Going from B5 to B6, the relative binding ratio falls from 0.0018 ratio (IC50 standard / IC50 test) to 0.0002 ratio (IC50 standard / IC50 test).

First: B7
Second: B8
The relative binding ratio of the first is lower: 0.0004 ratio (IC50 standard / IC50 test) for the first, 0.011 ratio (IC50 standard / IC50 test) for the second.

Going from B9 to B10, the relative binding ratio rises from 0.0002 ratio (IC50 standard / IC50 test) to 0.015 ratio (IC50 standard / IC50 test).

First: B11
Second: B12
The relative binding ratio of the first is lower: 0.0002 ratio (IC50 standard / IC50 test) for the first, 0.0021 ratio (IC50 standard / IC50 test) for the second.

Compared with B13, B14 is higher in relative binding ratio: 0.0004 ratio (IC50 standard / IC50 test) for the first, 0.0013 ratio (IC50 standard / IC50 test) for the second.

Target: HLA-A*0301 (purified HLA class I molecule) (human)
Experiment: competition vs 125I standard peptide, purified HLA

Compared with B15, B16 is lower in relative binding ratio: 0.001 ratio (IC50 standard/IC50 test) for the first, -0.0002 ratio (IC50 standard/IC50 test) for the second.

First: B17
Second: B18
The relative binding ratio of the first is lower: -0.0002 ratio (IC50 standard/IC50 test) for the first, 0.0003 ratio (IC50 standard/IC50 test) for the second.

Going from B19 to B20, the relative binding ratio rises from -0.0002 ratio (IC50 standard/IC50 test) to 0.0002 ratio (IC50 standard/IC50 test).

Going from B21 to B22, the relative binding ratio falls from 0.0009 ratio (IC50 standard/IC50 test) to 0.0002 ratio (IC50 standard/IC50 test).

Going from B23 to B24, the relative binding ratio rises from -0.0002 ratio (IC50 standard/IC50 test) to 0.001 ratio (IC50 standard/IC50 test).

Target: T2, HLA-A*1101 (purified HLA class I molecule) (human)
T2 construct: Purified MHC molecule
Experiment: competition vs 125I standard peptide, purified HLA

Compared with B15, B16 is lower in relative binding ratio: 0.0066 ratio (IC50 standard/IC50 test) for the first, 0.0003 ratio (IC50 standard/IC50 test) for the second.

Going from B17 to B18, the relative binding ratio rises from 0.0007 ratio (IC50 standard/IC50 test) to 0.0008 ratio (IC50 standard/IC50 test).

Compared with B19, B20 is higher in relative binding ratio: 0.0003 ratio (IC50 standard/IC50 test) for the first, 0.0005 ratio (IC50 standard/IC50 test) for the second.

First: B21
Second: B22
The relative binding ratio of the first is higher: 0.0099 ratio (IC50 standard/IC50 test) for the first, 0.0001 ratio (IC50 standard/IC50 test) for the second.

Compared with B23, B24 is higher in relative binding ratio: 0.0003 ratio (IC50 standard/IC50 test) for the first, 0.0004 ratio (IC50 standard/IC50 test) for the second.

Target: T3, HLA-A*0201 (human)
T3 construct: also called HLA-A2.1
Experiment: competition with 125I-labelled standard peptide 941.01 ([..]) on purified HLA, gel filtration

First: B25
Second: B26
The relative binding ratio of the first is lower: 0.0001 ratio (IC50 of standard peptide / IC50 of test peptide) for the first, 0.0002 ratio (IC50 of standard peptide / IC50 of test peptide) for the second.

First: B27
Second: B28
The relative binding ratio of the first is lower: 0.0002 ratio (IC50 of standard peptide / IC50 of test peptide) for the first, 0.0018 ratio (IC50 of standard peptide / IC50 of test peptide) for the second.

First: B29
Second: B30
The relative binding ratio of the first is higher: 0.0036 ratio (IC50 of standard peptide / IC50 of test peptide) for the first, 0.003 ratio (IC50 of standard peptide / IC50 of test peptide) for the second.

First: B31
Second: B32
The relative binding ratio of the first is higher: 0.0017 ratio (IC50 of standard peptide / IC50 of test peptide) for the first, 0.0002 ratio (IC50 of standard peptide / IC50 of test peptide) for the second.

First: B33
Second: B34
The relative binding ratio of the first is higher: 0.0007 ratio (IC50 of standard peptide / IC50 of test peptide) for the first, 0.0002 ratio (IC50 of standard peptide / IC50 of test peptide) for the second.

Going from B35 to B36, the relative binding ratio rises from 0.0001 ratio (IC50 of standard peptide / IC50 of test peptide) to 0.0002 ratio (IC50 of standard peptide / IC50 of test peptide).

Going from B37 to B38, the relative binding ratio rises from 0.0003 ratio (IC50 of standard peptide / IC50 of test peptide) to 0.0005 ratio (IC50 of standard peptide / IC50 of test peptide).

First: B39
Second: B40
The relative binding ratio of the first is higher: 0.0002 ratio (IC50 of standard peptide / IC50 of test peptide) for the first, 0.0001 ratio (IC50 of standard peptide / IC50 of test peptide) for the second.

First: B41
Second: B42
The relative binding ratio of the first is lower: 0.0001 ratio (IC50 of standard peptide / IC50 of test peptide) for the first, 0.0004 ratio (IC50 of standard peptide / IC50 of test peptide) for the second.

Going from B43 to B44, the relative binding ratio rises from 0.0017 ratio (IC50 of standard peptide / IC50 of test peptide) to 0.012 ratio (IC50 of standard peptide / IC50 of test peptide).

Target: HLA-A*6801 (human)
Experiment: inhibition of 125I probe peptide binding to purified HLA

B45 gave an IC50 of 8.9 nM.

Target: HLA-A*0301 (human)
Experiment: as above

B45 showed an IC50 of 180 nM.

Target: HLA-A*0301 (human)
Experiment: inhibition of 125I-labelled standard peptide binding to purified HLA, gel filtration

Going from B46 to B47, the relative binding ratio rises from 0.0033 ratio (IC50 of standard peptide / IC50 of test peptide) to 0.01 ratio (IC50 of standard peptide / IC50 of test peptide).

Target: HLA-A*1101 (human)
Experiment: as above

First: B46
Second: B47
The relative binding ratio of the first is higher: 0.0007 ratio (IC50 of standard peptide / IC50 of test peptide) for the first, -0.0002 ratio (IC50 of standard peptide / IC50 of test peptide) for the second.

— patent publication US20040018971A1 (published 2004)
